Source: US20170313769A1 (Pfizer, published 2017)
Where a chain is given by its changes, count along the chain named.

Experiments:
Human IFNω = Human IFNω (human, UniProt P05000 24-195); assay: plate ELISA, human IFNω coated at 5 µg/mL
Cynomolgus monkey IFNβ [1] = target: T1, Cynomolgus monkey IFNβ (cynomolgus monkey, UniProt O77812 22-187); assay: plate ELISA, cynomolgus IFNβ coated at 5 µg/mL, antibody titrated from 30 nM
T1 construct: also called cyno-IFNβ

[2] = target: T2, Human IFNβ (mature human interferon beta) (human, UniProt P01574 22-187); assay: cell-based or functional assay
Rat IFNβ = target: T3, Rat IFNβ (rat, UniProt P70499 22-184); assay: plate ELISA, rat IFNβ coated at 5 µg/mL
T3 sequence: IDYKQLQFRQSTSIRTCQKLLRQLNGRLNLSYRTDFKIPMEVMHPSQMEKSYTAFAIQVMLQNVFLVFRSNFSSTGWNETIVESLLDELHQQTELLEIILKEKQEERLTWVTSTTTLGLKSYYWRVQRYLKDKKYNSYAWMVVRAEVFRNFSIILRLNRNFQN

[3] = target: T2, Human IFNβ (mature human interferon …); assay: ELISA (summary value); human IFNβ
[4] = target: T2, Human IFNβ (mature human interferon …); assay: plate ELISA, human IFNβ coated at 5 µg/mL, antibody titrated from 30 nM
Human IFNγ = target: T4, Human IFNγ (human, UniProt P01579 24-166, limits assumed); assay: plate ELISA, IFNγ coated at 5 µg/mL
T4 construct: also called IFNγ (type II)
T4 sequence (looked up): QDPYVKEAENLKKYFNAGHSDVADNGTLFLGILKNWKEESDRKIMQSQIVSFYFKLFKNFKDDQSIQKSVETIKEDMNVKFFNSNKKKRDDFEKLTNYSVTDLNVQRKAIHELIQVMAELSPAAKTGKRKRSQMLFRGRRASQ

[5] = target: T2, Human IFNβ (mature human interferon …); assay: SPR, Biacore T200; CTI-AF1 immobilized on CM5 chip, human IFNβ (Peprotech) 10 to 0.078125 nM, 1:1 model
Mouse IFNβ = Mouse IFNβ (mouse, UniProt P01575 22-182); assay: plate ELISA, mouse IFNβ coated at 1 µg/mL
Mouse IFNβ, sequence (P01575 22-182): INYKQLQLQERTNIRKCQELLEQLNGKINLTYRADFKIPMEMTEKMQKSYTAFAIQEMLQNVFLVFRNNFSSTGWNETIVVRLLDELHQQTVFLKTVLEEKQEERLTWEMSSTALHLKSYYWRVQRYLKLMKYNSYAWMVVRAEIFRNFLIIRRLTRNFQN

Cynomolgus monkey IFNβ [6] = target: T1, Cynomolgus monkey IFNβ; assay: ELISA (summary value); cynomolgus monkey IFNβ
[7] = target: T2, Human IFNβ (mature human interferon …); assay: SPR, Biacore T200; antibody amine-coupled on CM5 chip, human IFNβ as analyte, 1:1 model
Rabbit IFNβ = target: T5, Rabbit IFNβ (rabbit); assay: plate ELISA, rabbit IFNβ coated at 10 ng/mL
T5 chain: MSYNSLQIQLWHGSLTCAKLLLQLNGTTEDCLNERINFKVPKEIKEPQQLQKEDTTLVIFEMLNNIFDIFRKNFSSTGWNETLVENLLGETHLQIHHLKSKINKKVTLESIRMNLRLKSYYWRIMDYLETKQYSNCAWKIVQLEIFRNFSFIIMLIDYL

CID1277 = target: T6, CID1277 (human (IFNβ with IFNα sequence inserted), UniProt P01574 22-187); assay: cell-based or functional assay
T6 chain: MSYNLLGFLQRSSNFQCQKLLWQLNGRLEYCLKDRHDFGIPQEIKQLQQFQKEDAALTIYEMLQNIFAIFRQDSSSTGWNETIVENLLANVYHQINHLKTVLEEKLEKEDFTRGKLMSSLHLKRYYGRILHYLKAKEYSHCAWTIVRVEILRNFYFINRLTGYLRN

[8] = target: T2, Human IFNβ (mature human interferon …); assay: cell-based or functional assay; remark: listed apart in the source
CID1283 = target: T7, CID1283 (human (IFNβ with IFNα sequence inserted), UniProt P01574 22-187); assay: cell-based or functional assay
T7 chain: T6 chain with H36M, D37N, G39D, Q42E, S119I, K123R, R124K

CID1286 = target: T8, CID1286 (human (IFNβ with IFNα sequence inserted), UniProt P01574 22-187); assay: cell-based or functional assay
T8 chain: T6 chain with H36M, D37N, G39D, Q42E, H140P

CID1281 = target: T9, CID1281 (human (IFNβ with IFNα sequence inserted), UniProt P01574 22-187); assay: cell-based or functional assay
T9 chain: T6 chain with H36M, D37N, G39D, Q42E, N90E, H93Q, H97D, K99E, T100A

CID1280 = target: T10, CID1280 (human (IFNβ with IFNα sequence inserted), UniProt P01574 22-187); assay: cell-based or functional assay
T10 chain: T6 chain with H36M, D37N, G39D, Q42E, E85D, N86K, A89T

[9] = target: T2, Human IFNβ (mature human interferon …); assay: SPR (affinity maturation); after affinity maturation (four light chain mutations)

T1 sequence (O77812 22-187): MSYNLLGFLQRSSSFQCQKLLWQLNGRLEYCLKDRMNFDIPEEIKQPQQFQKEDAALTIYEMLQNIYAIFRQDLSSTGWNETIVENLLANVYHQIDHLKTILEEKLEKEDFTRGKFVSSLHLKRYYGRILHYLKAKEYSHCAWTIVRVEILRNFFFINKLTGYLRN
Human IFNω, sequence (P05000 24-195): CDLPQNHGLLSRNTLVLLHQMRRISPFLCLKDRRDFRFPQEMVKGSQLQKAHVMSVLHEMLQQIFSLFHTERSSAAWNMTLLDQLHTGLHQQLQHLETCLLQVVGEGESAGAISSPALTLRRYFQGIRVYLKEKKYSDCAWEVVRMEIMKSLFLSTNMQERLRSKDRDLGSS

binding result (Human IFNω): no binding | EC50 (Cynomolgus monkey IFNβ [1]): 0.0247 nM | IC50, IFNβ induced luciferase activity in HEK293 ISRE-Luc cells [2]: 0.0288 nM | IC50, M×A (M×1) gene expression in human dermal fibroblasts stimulated with recombinant IFNβ [2]: 0.0294 nM | IC50, inhibition of IFNβ induced STAT1 phosphorylation in U937 cells (phosflow) [2]: 0.0298 nM | IC50, neutralization of IFNβ induced STAT1 phosphorylation [2]: 0.0077 nM | binding result (Rat IFNβ): no binding | EC50 [3]: 0.0153 nM | EC50 [4]: 0.0151 nM | binding result (Human IFNγ): no binding | Kd [5]: 0.0367 nM | binding result (Mouse IFNβ): no binding | EC50 (Cynomolgus monkey IFNβ [6]): 0.025 nM | Kd [7]: 0.036 nM | EC50 (Rabbit IFNβ): 2.95 nM | IC50 (nM), neutralization of type I IFN-induced STAT1 phosphorylation (CID1277): 0.3 nM | IC50 (nM), neutralization of type I IFN-induced STAT1 phosphorylation [8]: 0.3 nM | IC50 (nM), neutralization of type I IFN-induced STAT1 phosphorylation (CID1283): 0.4 nM | IC50 (nM), neutralization of type I IFN-induced STAT1 phosphorylation (CID1286): 0.4 nM | IC50 (nM), neutralization of type I IFN-induced STAT1 phosphorylation (CID1281): 3280 nM | IC50 (nM), neutralization of type I IFN-induced STAT1 phosphorylation (CID1280): 47.7 nM | Kd [9]: 0.029 nM
B1: CTI-AF1 (antibody, human IgG1, kappa, V domains shown)
VH: QVQLVQSGAEVKKPGSSVKVSCKASGYTFSRYWMHWVRQAPGQGLEWMGHIDPSDSYTYYNQKFKGRVTITADESTSTAYMELSSLRSEDTAVYYCARWDYGNLLFEYWGQGTLVTVSS
VL: DIQMTQSPSSLSASVGDRVTITCRTSQDIGNYLNWYQQKPGKAFKLLIYSTSRLHSGVPSRFSGSGSGTDFTLTISSLQPEDFATYYCQQGIILPITFGGGTKVEIKR
notes: Humanized IgG1; The C-terminal K of the heavy chain is printed as optional, '(K)'; also called anti-IFNβ antibody; humanized IgG1 antibody against interferon beta
